± gives the uncertainty stated by the source.
Assay: protein stability index of a GFP-peptide fusion (yeast GPS) (PSI 1-4); higher = more stable; sorted into four equal gates, so the index is relative within each strain
Procedure, shortened: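 Tiled yeast protein peptides of 17 residues were each joined downstream of GFP, on plasmids that also express Cherry. The pooled library was maintained in yeast, and mid-log cultures in leucine-free medium were sorted into four equal gates on the GFP/Cherry ratio. Plasmids from every gate were amplified by PCR and sequenced on Illumina, with barcodes linking reads to strains. The protein stability index of a peptide is its gate-number-weighted read frequency summed over the gates.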

| Sequence | protein stability index (doa10∆) | protein stability index (pdr5∆) | protein stability index (san1∆) | protein stability index (ubr1∆) |
| --- | --- | --- | --- | --- |
| TFRIFHNHDTGCDENDS [YDL088C/ASM4] | 2.92 ± 0.1 | 3.09 ± 0.14 | 3.27 ± 0.1 | 3.11 ± 0.1 |
| TRPLTLSHGSLEHVLLV [FAS1] | 2.39 ± 0.068 | 2.72 ± 0.076 | 2.67 ± 0.068 | 3.12 ± 0.065 |
| MAYFDENLNRNWRGREH [BRN1] | 3.25 ± 0.099 | 3.41 ± 0.16 | 2.99 ± 0.091 | 3.14 ± 0.095 |
| LTDLDSPSEFVDVAIPC [RPS0A] | 2.77 ± 0.091 | 2.46 ± 0.073 | 2.31 ± 0.077 | 2.56 ± 0.063 |
| KFPTRKIYMLYSLQPSV [RPC34] |  | 2.13 ± 0.23 |  |  |
| LEKGEIELSDGSTFKVN [YJL039C/NUP192] | 3.02 ± 0.079 | 3.1 ± 0.067 | 2.83 ± 0.073 | 2.95 ± 0.052 |
| EALLVVLVSSVTEANII [RPS12] |  | 1.15 ± 0.14 |  | 1.13 ± 0.11 |
| FQIDNDNIRYATALQTC [SMC2] | 1.8 ± 0.052 | 1.78 ± 0.047 | 1.45 ± 0.073 | 1.74 ± 0.052 |
| IVGVLQDDADPMVSVMK [RPT2] | 1.99 ± 0.057 | 2.31 ± 0.057 | 2.49 ± 0.11 | 2.26 ± 0.056 |
| PEYLAMYGLTMEWPKDM [ITC1] | 2.45 ± 0.074 | 2.34 ± 0.11 | 2.23 ± 0.14 | 2.14 ± 0.072 |
| YAVKAVENGTTSIGIKC [PRE10] | 2.04 ± 0.11 | 2.02 ± 0.076 | 1.36 ± 0.21 | 2.77 ± 0.19 |
| NLFSSTGFKGLLIELQA [SRB2] | 2.6 ± 0.12 | 2.87 ± 0.069 | 2.92 ± 0.058 | 2.94 ± 0.042 |
| GQQTAQPQQSTIGGGLF [YGR119C/NUP57] | 2.88 ± 0.072 | 3.19 ± 0.052 | 2.93 ± 0.053 | 3.28 ± 0.067 |
| QAQAQVYAQQSTVQTPI [PGD1] | 2.8 ± 0.052 | 2.91 ± 0.055 | 2.83 ± 0.048 | 2.95 ± 0.059 |
| IRKDPNNLSNQLETLTG [CSE2] | 2.87 ± 0.11 | 2.91 ± 0.098 | 2.68 ± 0.11 | 2.77 ± 0.095 |
| ETQPGCNEEQTLEAKIG [RPO31] | 3.21 ± 0.073 | 3.33 ± 0.069 | 2.96 ± 0.057 | 3.24 ± 0.053 |
| LGKGGAKRHRKILRDNI [HHF1] | 3.36 ± 0.26 | 3.21 ± 0.17 | 3.4 ± 0.19 | 2.99 ± 0.14 |
| LISSSGPIKTPVGACAT [FAS2] | 1.76 ± 0.053 | 1.76 ± 0.11 | 1.31 ± 0.098 | 2.17 ± 0.071 |
| EKIFHYGHVFLGITGLA [PUP3] | 1.17 ± 0.086 | 1.34 ± 0.094 | 1.15 ± 0.18 | 1.05 ± 0.074 |
| RELFVMAREHAPSIIFM [RPT6] | 1.82 ± 0.078 | 1.99 ± 0.085 | 1.4 ± 0.23 | 1.71 ± 0.078 |
| AQYGIKALPIRRDDEVL [RPL26A] | 3.63 ± 0.18 | 3.32 ± 0.17 | 3.43 ± 0.061 | 3.28 ± 0.14 |
| LQFHVATYMDNDIAGQP [RPO21] | 2.6 ± 0.07 | 2.53 ± 0.073 | 2.6 ± 0.053 | 2.66 ± 0.056 |
| QPQETEEHHEEEPSRVD [RPT4] | 3.56 ± 0.064 | 3.44 ± 0.1 | 3.23 ± 0.074 | 3.22 ± 0.086 |
| SRGIVIGSGAMSPLECR [RPP1] | 1.69 ± 0.031 | 2.34 ± 0.048 | 2.12 ± 0.069 | 2.44 ± 0.036 |
| SQHGQGNNPSWVNNPKK [YDL088C/ASM4] | 3.2 ± 0.14 | 3.52 ± 0.16 |  |  |
| NSDHAKFTIEPGVLPVG [SNF2] | 2.23 ± 0.046 | 2.27 ± 0.054 | 2.32 ± 0.098 | 1.83 ± 0.046 |
| ELLETVSLTKRKQEREI [YIL149C/MLP2] | 1.43 ± 0.095 | 1.61 ± 0.07 | 1.5 ± 0.19 | 1.12 ± 0.036 |

| Sequence | protein stability index (doa10∆) | protein stability index (pdr5∆) | protein stability index (san1∆) | protein stability index (ubr1∆) |
| --- | --- | --- | --- | --- |
| SNGGGKVKPIRGFCQRL [RPO31] | 2.94 ± 0.13 | 3.12 ± 0.11 | 3.09 ± 0.097 | 3.25 ± 0.065 |
| AATIGANFIFSPASGIV [RPT4] | 2.56 ± 0.061 | 2.66 ± 0.055 | 1.84 ± 0.1 | 2.18 ± 0.083 |
| NDEVNEDEEDDNISSFH [YCG1] | 3.18 ± 0.12 | 3.28 ± 0.12 | 3.31 ± 0.074 | 3.33 ± 0.12 |
| ALPHVEINQVSLALVIR [RGR1] | 1.91 ± 0.12 | 3 ± 0.22 | 2.24 ± 0.13 | 2.71 ± 0.086 |
| KKPLSMALNKVLITDHI [CDC53] | 1.93 ± 0.04 | 2.24 ± 0.038 | 2.18 ± 0.05 | 2.12 ± 0.028 |
| ITYDKQEPSASQVKDSV [SRP68] | 3.14 ± 0.046 | 3.12 ± 0.062 | 2.98 ± 0.053 | 2.99 ± 0.071 |
| MIQEVIVEEDLEPFEAS [FAS2] | 3.5 ± 0.18 | 3.16 ± 0.11 | 3.53 ± 0.063 | 3.47 ± 0.099 |
| VLVYDDKLEKVTHDCYR [RPC34] | 2.57 ± 0.1 | 3.18 ± 0.053 | 2.94 ± 0.069 | 2.96 ± 0.062 |
| DTFELIKTFLVDLTSSN [YDL116W/NUP84] | 2.69 ± 0.07 | 3.19 ± 0.073 | 2.55 ± 0.08 | 3.1 ± 0.046 |
| MTAQQAPKWYPSEDVAA [RPL6B] | 1.77 ± 0.11 | 1.7 ± 0.074 | 1.84 ± 0.091 | 1.71 ± 0.11 |
| LLKHPFKAIHGSQLRLS [YCS4] | 1.67 ± 0.046 | 1.62 ± 0.043 | 1.64 ± 0.072 | 1.83 ± 0.025 |
| PSCNNMLLITSGDSGVY [RPC11] | 1.32 ± 0.077 | 1.55 ± 0.22 |  | 2.24 ± 0.17 |
| KLNELDELILEAKERYT [NNF1] | 2.98 ± 0.11 | 3.17 ± 0.096 | 3.23 ± 0.058 | 2.82 ± 0.16 |
| HLLVQLQKNDVYAFKAK [REC8] | 3.15 ± 0.075 | 2.99 ± 0.064 | 2.73 ± 0.059 | 3.15 ± 0.074 |
| QLILSDVDPEFYLKYVD [RET1] | 3.25 ± 0.23 | 2.95 ± 0.15 | 2.72 ± 0.12 | 2.92 ± 0.12 |
| EEVQQAQTEIKLFNKWS [RPS5] | 3.17 ± 0.1 | 3.21 ± 0.096 | 3.25 ± 0.076 | 3.27 ± 0.075 |
| NEFQLQWGKYQTFGVDI [SWI1] | 2.98 ± 0.12 | 3.06 ± 0.09 | 3.09 ± 0.067 | 3.26 ± 0.088 |
| FKSYATRTVITDWDPQF [SMC2] | 2.88 ± 0.11 | 3.06 ± 0.083 | 2.72 ± 0.12 | 2.85 ± 0.097 |
| NTEQGDSDELGGESMEG [SNM1] | 3.45 ± 0.1 | 3.54 ± 0.11 | 3.4 ± 0.093 | 3.39 ± 0.085 |
| RNESLKNNSSIRNVIMS [SRB8] | 1.81 ± 0.035 | 2.11 ± 0.049 | 1.87 ± 0.084 | 2.09 ± 0.039 |
| AQLTHSLRRIRDEMSKA [MED8] | 2.33 ± 0.12 | 2.35 ± 0.07 | 2.02 ± 0.11 | 1.99 ± 0.052 |
| LGGDSDEANIEIDPLTG [BRN1] | 3.05 ± 0.18 | 3.48 ± 0.27 | 2.92 ± 0.18 |  |
| HDLLQIIHFHSHPEKRM [SSN3] | 2.62 ± 0.053 | 2.71 ± 0.053 | 2.65 ± 0.046 | 2.79 ± 0.039 |
| YFFQLQIRSADEPMTTF [RPC11] | 2.77 ± 0.063 | 2.91 ± 0.068 | 3.06 ± 0.058 | 3.26 ± 0.071 |
| CQLQNSDNSEEEEVDID [RRP43] | 3.2 ± 0.077 | 3.22 ± 0.065 | 3.02 ± 0.08 | 3.13 ± 0.056 |
| QQWGNDFYKRDPRIAPL [FAS2] | 1.88 ± 0.058 | 2 ± 0.048 | 1.87 ± 0.1 | 2 ± 0.05 |
| LYQIWIVMVWLKENTYV [YDL116W/NUP84] | 1.85 ± 0.061 | 1.77 ± 0.062 | 2.11 ± 0.097 | 2.14 ± 0.046 |

From the supplement of paper PMC9732359
